T1: CCDC112 on HCT116 tumor cells (including HCT116 cells stably overexpressing CCDC112) (human, UniProt Q8NEF3 1-446)
T1 construct: also called CCDC112 on the surface of tumor cells; HCT116-CCDC112
T1 sequence: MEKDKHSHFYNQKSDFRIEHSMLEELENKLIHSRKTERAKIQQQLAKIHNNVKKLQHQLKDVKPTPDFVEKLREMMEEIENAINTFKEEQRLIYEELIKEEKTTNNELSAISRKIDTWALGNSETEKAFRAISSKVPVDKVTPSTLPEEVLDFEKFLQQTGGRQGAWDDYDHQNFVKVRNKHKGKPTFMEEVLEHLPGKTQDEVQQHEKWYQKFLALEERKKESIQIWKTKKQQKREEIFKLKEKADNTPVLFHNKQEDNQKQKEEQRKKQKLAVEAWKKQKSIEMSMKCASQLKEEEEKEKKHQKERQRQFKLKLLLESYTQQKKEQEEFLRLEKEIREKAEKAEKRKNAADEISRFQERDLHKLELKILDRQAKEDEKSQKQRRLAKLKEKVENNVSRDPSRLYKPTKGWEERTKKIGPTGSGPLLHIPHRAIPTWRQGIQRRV

T2: CD30 extracellular region protein fragment labeled with hFc (UniProt P28908 19-385)
T2 construct: extracellular domain; Bought from ACRO Biosystems or Sino Biological; not shown: human Fc label (hFc)
T2 sequence (looked up): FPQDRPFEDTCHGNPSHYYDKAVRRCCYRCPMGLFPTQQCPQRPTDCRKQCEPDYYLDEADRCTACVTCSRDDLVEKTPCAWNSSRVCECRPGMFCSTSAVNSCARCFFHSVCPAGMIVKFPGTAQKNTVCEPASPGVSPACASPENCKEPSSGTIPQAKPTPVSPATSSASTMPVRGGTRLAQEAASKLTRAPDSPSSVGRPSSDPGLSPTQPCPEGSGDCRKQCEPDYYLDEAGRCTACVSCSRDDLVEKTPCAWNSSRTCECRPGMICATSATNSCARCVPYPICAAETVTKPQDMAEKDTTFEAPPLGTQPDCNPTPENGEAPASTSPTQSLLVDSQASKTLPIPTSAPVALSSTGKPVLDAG

B1: CCDC112 recombinant protein (coiled-coil domain-containing protein 112) (ligand)
chain: MEKDKHSHFYNQKSDFRIEHSMLEELENKLIHSRKTERAKIQQQLAKIHNNVKKLQHQLKDVKPTPDFVEKLREMMEEIENAINTFKEEQRLIYEELIKEEKTTNNELSAISRKIDTWALGNSETEKAFRAISSKVPVDKVTPSTLPEEVLDFEKFLQQTGGRQGAWDDYDHQNFVKVRNKHKGKPTFMEEVLEHLPGKTQDEVQQHEKWYQKFLALEERKKESIQIWKTKKQQKREEIFKLKEKADNTPVLFHNKQEDNQKQKEEQRKKQKLAVEAWKKQKSIEMSMKCASQLKEEEEKEKKHQKERQRQFKLKLLLESYTQQKKEQEEFLRLEKEIREKAEKAEKRKNAADEISRFQERDLHKLELKILDRQAKEDEKSQKQRRLAKLKEKVENNVSRDPSRLYKPTKGWEERTKKIGPTGSGPLLHIPHRAIPTWRQGIQRRV
notes: also called CCDC112 protein; full-length CCDC112 protein

Key:
[1] = biological target: B1; assay: bio-layer interferometry (ProbeLife Gator), antibody (200 nM) immobilized, antigen 15 nM to 1.875 nM
Method: The dissociation constant (KD) of the antibody of the invention binding to human CCDC112 was determined using bio-layer interferometry on ProbeLife Gator according to conventional procedures.

[2] = biological target: T1, CCDC112 on HCT116 tumor cells …; assay: flow cytometry on HCT116 cells overexpressing CCDC112; table gives no unit, unit from the x axis 'Abs conc. nM'
Method: Further, the specific binding of the CCDC112 antibody to the antigen was verified by flow cytometry. The HCT116 cell line overexpressing CCDC112 was constructed by stable transfection of liposome, and the cells and the CCDC112 antibody were co-incubated, the unbound antibody was washed away, and then the anti-mouse secondary antibody (FITC modified) was used for flow cytometry and the percentage of cells that stain positive was analyzed.

[3] = biological target: B1; assay: ELISA, coated full-length CCDC112 protein, antibody titrated; table gives no unit, unit from the x axis Ab(nM)
[4] = biological target: T3, LTBR-hFc (LTBR extracellular region protein fragment labeled with hFc) (UniProt P36941 31-227); assay: ELISA at pH 6, coated CCDC112 gradient, LTBR-hFc 0.5 µg/mL; table gives no unit, unit from the x axis; target from the plot title (legend names CD30)
T3 construct: extracellular domain; Bought from ACRO Biosystems or Sino Biological; also called lymphotoxin-beta receptor; TNFRSF3
T3 sequence (P36941 31-227): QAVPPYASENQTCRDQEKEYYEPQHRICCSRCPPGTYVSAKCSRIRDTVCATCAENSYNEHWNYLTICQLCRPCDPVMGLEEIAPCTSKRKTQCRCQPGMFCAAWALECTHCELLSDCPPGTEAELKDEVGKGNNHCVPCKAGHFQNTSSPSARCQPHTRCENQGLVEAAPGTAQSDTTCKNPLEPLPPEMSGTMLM
Method: (§1) Specifically, a special plate for ELISA (costar, ME, USA) was used. Firstly, different concentrations of CCDC112 recombinant proteins were dissolved in 100 μL of ELISA coating solution (Solarbio, Beijing, China) to coat the plate, and the negative control was coated with 100 μL of coating solution without protein. The plate was coated overnight at 4° C. After washing with PBST, 100 μL of 5% BSA dissolved in PBS (VWR, PA, USA) was used for blocking in the incubator at 37° C. for 90 min. […] The above-mentioned receptor protein was labeled with hFc (P-Fc) and binding was carried out in the incubator at 37° C. for 60 min. After washing with PBST, a specific anti-human Fc fragment antibody (Abcam, MA, USA) diluted in PBS was used for incubation and binding at 37° C. for 30 min. After washing with PBST, chromogenic solution (Sangon, Shanghai, China) was added at 100 μL per well for color development and reacted in an incubator for 5-30 min, and then 50 μL of stop solution (Sangon, Shanghai, China) was added, and chromogenic reading was then carried out under a microplate reader (Thermo Fisher, MA, USA) at 450 nm.

[5] = biological target: T2, CD30 extracellular region protein …; assay: ELISA at pH 7, coated CCDC112 gradient, CD30-hFc 0.5 µg/mL; value lies above the highest concentration shown, curve has no plateau; table gives no unit, unit from the x axis; target from the plot title (legend names LTBR)
Method: as §1

[6] = biological target: T3, LTBR-hFc (LTBR extracellular region …); assay: ELISA at pH 7.5, coated CCDC112 gradient, LTBR-hFc 0.5 µg/mL; ambiguous fit far outside the range shown, curve nearly flat; table gives no unit, unit from the x axis; target from the plot title (legend names CD30)
Method: as §1

[7] = biological target: T2, CD30 extracellular region protein …; assay: ELISA at pH 5.5, coated CCDC112 gradient, CD30-hFc 0.5 µg/mL; table gives no unit, unit from the x axis; target from the plot title (legend names LTBR)
Method: as §1

[8] = biological target: T2, CD30 extracellular region protein …; assay: ELISA at pH 6.5, coated CCDC112 gradient, CD30-hFc 0.5 µg/mL; table gives no unit, unit from the x axis; target from the plot title (legend names LTBR)
Method: as §1

[9] = biological target: T3, LTBR-hFc (LTBR extracellular region …); assay: ELISA at pH 6.5, coated CCDC112 gradient, LTBR-hFc 0.5 µg/mL; table gives no unit, unit from the x axis; target from the plot title (legend names CD30)
Method: as §1

[10] = biological target: T3, LTBR-hFc (LTBR extracellular region …); assay: ELISA at pH 5.5, coated CCDC112 gradient, LTBR-hFc 0.5 µg/mL; table gives no unit, unit from the x axis; target from the plot title (legend names CD30)
Method: as §1

[11] = biological target: T2, CD30 extracellular region protein …; assay: ELISA at pH 6, coated CCDC112 gradient, CD30-hFc 0.5 µg/mL; table gives no unit, unit from the x axis; target from the plot title (legend names LTBR)
Method: as §1

Kd [1] [pM] | EC50 [2] [pM] | EC50 [3] [pM] | EC50 [4] [µg/mL] | EC50 [5] [µg/mL] | EC50 [6] [µg/mL] | EC50 [7] [µg/mL] | EC50 [8] [µg/mL] | EC50 [9] [µg/mL] | EC50 [10] [µg/mL] | EC50 [11] [µg/mL] | Binder
468 | 980 | 64.4 |  |  |  |  |  |  |  |  | monoclonal antibody S-78-02 (antibody, V domains shown, Mouse hybridoma monoclonal antibody raised against CCDC112 protein and detected with an anti-mouse secondary antibody; also called CCDC112 antibody; CCDC112 monoclonal antibody) VH: QVQLQQSGPELVKPGASVKIPCKTSGYSFTDYNIDWVKQGLGESLEWIGDINPNYGGTMYNQKFKGKATLTVDKSSNTAYMELRSLTSEDTAVYYCAHDEFIYWGQGTLVTVSA VL: DIQMNQSPSSMFASLGERVTITCRASQDINTYLSWIQRKPGKSPKTLIYRANRLVDGVPSRFSGSGSGQDYSLTISSLEYEDMGIYYCLQYDEFPHTFGGGTKLEIK
 |  |  | 1.26 | 16.1 | ~18100 | 2.11 | 4.61 | 1.94 | 0.922 | 1.91 | B1

From patent publication US20240101663A1 (BIOTROY THERAPEUTICS, published 2024)
